Legend:
[1] = target: HLA-A*30:01; experiment: IEDB peptide-MHC binding, purified MHC/competitive/radioactivity; filed as Kd, often an IC50 or EC50 that approximates it; ≥ and ≤ were set here for values at or beyond the usual limits of such assays
[2] = target: HLA-A*23:01; experiment: as above
[3] = target: HLA-A*02:01; experiment: IEDB peptide-MHC binding, purified MHC/competitive/fluorescence; ≥ and ≤ were set here for values at or beyond the usual limits of such assays
[4] = target: HLA-A*24:02; experiment: IEDB peptide-MHC binding, purified MHC/competitive/radioactivity; filed as Kd, often an IC50 or EC50 that approximates it; ≥ and ≤ were set here for values at or beyond the usual limits of such assays
[5] = target: HLA-A*03:01; experiment: IEDB peptide-MHC binding, purified MHC/direct/fluorescence; filed as Kd, often an IC50 or EC50 that approximates it; ≥ and ≤ were set here for values at or beyond the usual limits of such assays; conditions: source organism: Burkholderia ambifaria AMMD
[6] = target: HLA-A*32:01; experiment: IEDB peptide-MHC binding, purified MHC/competitive/radioactivity; filed as Kd, often an IC50 or EC50 that approximates it; ≥ and ≤ were set here for values at or beyond the usual limits of such assays
[7] = target: HLA-B*40:01; experiment: as above
[8] = target: HLA-A*02:01; experiment: IEDB peptide-MHC binding, purified MHC/direct/fluorescence; filed as Kd, often an IC50 or EC50 that approximates it; ≥ and ≤ were set here for values at or beyond the usual limits of such assays
[9] = target: HLA-A*69:01; experiment: as above
[10] = target: HLA-B*27:05; experiment: as above; conditions: source organism: SARS-CoV1
[11] = target: HLA-A*01:01; experiment: as above; conditions: source organism: Influenza A virus (A/chicken/Nanchang/7-010/2000(H3N6))
[12] = target: HLA-A*02:02; experiment: IEDB peptide-MHC binding, purified MHC/competitive/radioactivity; filed as Kd, often an IC50 or EC50 that approximates it; ≥ and ≤ were set here for values at or beyond the usual limits of such assays
[13] = target: HLA-A*02:03; experiment: as above
[14] = target: HLA-A*02:06; experiment: as above
[15] = target: HLA-A*11:01; experiment: IEDB peptide-MHC binding, purified MHC/direct/fluorescence; filed as Kd, often an IC50 or EC50 that approximates it; ≥ and ≤ were set here for values at or beyond the usual limits of such assays; conditions: source organism: Mycobacterium tuberculosis
[16] = source organism: Dengue virus 4 Philippines/H241/1956
[17] = source organism: Dengue virus 2 Jamaica/1409/1983
[18] = source organism: Zaire ebolavirus
[19] = source organism: Dengue virus 3 Martinique/1243/1999
[20] = source organism: Dengue virus 1 Brazil/97-11/1997
[21] = source organism: Vaccinia virus WR
[22] = source organism: Dengue virus 4 Dominica/814669/1981
[23] = source organism: Yersinia pestis Antiqua
[24] = source organism: Marburg virus - Musoke, Kenya, 1980
[25] = source organism: Mycobacterium tuberculosis
[26] = source organism: SARS coronavirus Tor2
[27] = source organism: Encephalitozoon cuniculi
[28] = source organism: Mammarenavirus caliense

Sequence: LSTRDGEPLM
- Kd [1, 16]: 1630 nM

Sequence: MWKQITPEL
- Kd [2, 17]: 170 nM

Sequence: NLHYWTTQD
- IC50 [3, 18]: ≥ 124 µM

Sequence: NSTLEVTEI
- IC50 ([3]; source organism: Sudan ebolavirus): ≥ 97.4 µM

Sequence: NYILWENNI
- Kd [2, 19]: 6.03 nM
- Kd [4, 19]: 2.85 nM

Sequence: NYRPGYFTQ
- Kd [4, 20]: ≥ 44400 nM

Sequence: PGPDNSTHN
- IC50 [3, 18]: ≥ 472 µM

Sequence: PTVAPPAPV
- IC50 [3, 18]: ≥ 171 µM

Sequence: PWLKNNQFCI
- Kd [2, 19]: 102 nM
- Kd [4, 19]: 224 nM

Sequence: PYMPSVVETL
- Kd [2, 20]: 32.2 nM
- Kd [4, 20]: 31.9 nM

Sequence: QWMTTEDMLT
- Kd [4, 19]: 6100 nM

Sequence: RARYKKMLK
- Kd [1, 21]: 1.04 nM

Sequence: RFGTSLLFL
- Kd [4, 22]: 673 nM

Sequence: RLFARTGLE
- Kd [5]: 748 nM

Sequence: RQWFFDLPL
- Kd [6, 19]: 1.17 nM
- Kd [7, 19]: 42 nM

Sequence: RSGAYVSAI
- Kd [6, 17]: 378 nM

Sequence: SGQSPARTS
- IC50 [3, 18]: ≥ 234 µM

Sequence: SILGIGTVL
- IC50 ([3]; source organism: Hepatitis C virus genotype 1): ≥ 100 µM

Sequence: SLGGVFTSI
- Kd [6, 17]: 294 nM

Sequence: SQGRGWFLL
- Kd [8, 23]: 284 nM
- Kd [9, 23]: ≥ 20 µM

Sequence: SRYWEPEFY
- Kd [10]: 1190 nM

Sequence: SSEDLNGMI
- Kd [11]: ≥ 20 µM

Sequence: STASDTPSA
- IC50 [3, 18]: 12.2 µM

Sequence: TAFFNTCKPT
- Kd [12, 21]: ≥ 31600 nM
- Kd [13, 21]: ≥ 22300 nM
- Kd [14, 21]: ≥ 33000 nM

Sequence: TEDDLQNEEL
- Kd [7, 22]: 136 nM

Sequence: TEHGTIATI
- Kd [7, 20]: 80 nM

Sequence: TIFTLTVAW
- Kd ([6]; source organism: Dengue virus 3 Sri Lanka/1266/2000): 157 nM

Sequence: TIKESLLKET
- Kd [12, 21]: 1580 nM
- Kd [13, 21]: 149 nM
- Kd [14, 21]: 87.2 nM

Sequence: TLLNETAKV
- Kd [12, 21]: 246 nM
- Kd [13, 21]: 83.1 nM
- Kd [14, 21]: 11.1 nM

Sequence: TMLSIILVI
- Kd [6, 21]: 15.6 nM

Sequence: TQVKELGIA
- Kd [12, 21]: 7220 nM
- Kd [13, 21]: 52.2 nM
- Kd [14, 21]: 55.6 nM

Sequence: TTENAAYQV
- Kd [12, 21]: ≥ 77800 nM
- Kd [13, 21]: ≥ 51300 nM
- Kd [14, 21]: 442 nM

Sequence: TTFGRIGVK
- Kd [15]: 2 nM

Sequence: TVDFTDCRT
- Kd [12, 21]: 9680 nM
- Kd [13, 21]: ≥ 27000 nM
- Kd [14, 21]: 339 nM

Sequence: TWAYHGSYET
- Kd [4, 17]: 2160 nM

Sequence: VESWEEVPYL
- Kd [7, 17]: 41 nM

Sequence: VFGAIYGAAF
- Kd [2, 17]: 4.48 nM
- Kd [4, 17]: 323 nM

Sequence: VISVIFYFI
- Kd [12, 21]: 1.4 nM
- Kd [13, 21]: 729 nM
- Kd [14, 21]: 497 nM

Sequence: VLEKKVCAIT
- Kd [12, 21]: 590 nM
- Kd [13, 21]: 1240 nM
- Kd [14, 21]: 1680 nM

Sequence: VLYNNVVEF
- Kd [6, 21]: 1.45 nM

Sequence: VMNPLGLNV
- Kd [8, 24]: 320 nM
- Kd [9, 24]: 0.78 µM

Sequence: VTDKTAYIGT
- Kd [12, 21]: ≥ 21800 nM
- Kd [13, 21]: 4000 nM
- Kd [14, 21]: 227 nM

Sequence: VVEPPRQLV
- Kd [8, 25]: ≥ 5000 nM
- Kd [9, 25]: 20 µM

Sequence: WRLSAQWQKG
- Kd [6, 19]: ≥ 36000 nM

Sequence: WVMDTLNGI
- Kd [12, 21]: 9.78 nM
- Kd [13, 21]: 1.01 nM
- Kd [14, 21]: 0.731 nM

Sequence: WYMWLGARYL
- Kd [2, 19]: 18.2 nM
- Kd [4, 19]: 17.8 nM

Sequence: YLMCLSPLMA
- Kd [12, 26]: 0.237 nM
- Kd [13, 26]: 0.127 nM
- Kd [14, 26]: 1.29 nM

Sequence: YLPRFLFGV
- Kd [8, 25]: 1.8 nM

Sequence: YLVPGEGEQ
- Kd [8, 27]: 7000 nM
- Kd [9, 27]: ≥ 20 µM

Sequence: YMLFTKFFYL
- Kd [12, 26]: 47.7 nM
- Kd [13, 26]: 45.8 nM
- Kd [14, 26]: 20.3 nM

Sequence: YNLSLSAAV
- Kd [12, 28]: 867 nM
- Kd [13, 28]: 1140 nM
- Kd [14, 28]: 1660 nM

Sequence: YVILTILTI
- Kd [4, 16]: 6010 nM

— the Immune Epitope Database (IEDB)
